The source of these data is patent EP4663199A1.

The test concerns the target bispecific binding molecule comprising a first specific binding molecule (comprising SEQ ID NO:265 a).

Sequence of bispecific binding molecule comprising a first specific binding molecule (comprising SEQ ID NO:265 a) (chain, as listed by the source, chain 1 of 3): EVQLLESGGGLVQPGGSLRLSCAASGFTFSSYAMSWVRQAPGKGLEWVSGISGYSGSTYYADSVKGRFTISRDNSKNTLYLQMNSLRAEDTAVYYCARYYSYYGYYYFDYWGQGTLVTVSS
Sequence of bispecific binding molecule comprising a first specific binding molecule (comprising SEQ ID NO:265 a) (chain, as listed by the source, chain 2 of 3): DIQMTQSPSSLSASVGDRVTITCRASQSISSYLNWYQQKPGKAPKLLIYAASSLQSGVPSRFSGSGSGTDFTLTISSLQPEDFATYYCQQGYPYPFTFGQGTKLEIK
Sequence of bispecific binding molecule comprising a first specific binding molecule (comprising SEQ ID NO:265 a) (chain, as listed by the source, chain 3 of 3): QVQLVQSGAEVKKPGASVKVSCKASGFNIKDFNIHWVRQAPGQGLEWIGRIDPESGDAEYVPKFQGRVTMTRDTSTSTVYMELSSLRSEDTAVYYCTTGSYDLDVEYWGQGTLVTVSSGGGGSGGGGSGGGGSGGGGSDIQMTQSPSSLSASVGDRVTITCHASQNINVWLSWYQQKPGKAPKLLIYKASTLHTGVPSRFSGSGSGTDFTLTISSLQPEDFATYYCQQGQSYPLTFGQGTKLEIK

For orientation: Kd means the concentration at which binding is half-saturated. A higher Kd goes with weaker binding. FIGITELKK (modifications not checked) [tag moiety … (SEQ ID NO:2)] had a dissociation constant Kd of 9.4 pM.
